According to publication PMC11286949, “Structural basis of tRNA recognition by the widespread OB fold”:

T1: Arc1p dN (Saccharomyces cerevisiae, UniProt P46672 132-376, del1-131)
T1 sequence: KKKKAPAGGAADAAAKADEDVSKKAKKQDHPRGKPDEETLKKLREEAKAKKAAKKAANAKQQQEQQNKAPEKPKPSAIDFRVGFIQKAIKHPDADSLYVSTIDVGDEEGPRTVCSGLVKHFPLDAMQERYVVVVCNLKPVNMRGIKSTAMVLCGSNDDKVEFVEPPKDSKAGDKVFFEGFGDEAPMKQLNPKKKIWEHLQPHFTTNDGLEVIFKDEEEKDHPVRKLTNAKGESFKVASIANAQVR


Columns and labels:
Trbp111 [1] = biological target: T2, Trbp111 (Aquifex aeolicus, UniProt O66738 1-111); test: competition FP; vs fluorescein-tRNATyr; FP: 25 mM Tris-HCl pH 7.5, 2 mM MgCl2, 50 mM NaCl (Trbp111) or 150 mM NaCl (Arc1p), room temperature; ITC: 25 mM Tris-HCl pH 7.4, 150 mM NaCl, 2 mM MgCl2, 25 C; conditions: protein: recombinant; tags: His-MBP removed (PreScission); chain copies: 2; hairpin
T2 sequence (O66738 entry or part of it): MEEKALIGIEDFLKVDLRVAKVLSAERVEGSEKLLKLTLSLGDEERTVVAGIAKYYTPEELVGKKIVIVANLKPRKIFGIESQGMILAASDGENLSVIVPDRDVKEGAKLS

Arc1p dN [2] = biological target: T1, Arc1p dN; test: competition FP; FP: 25 mM Tris-HCl pH 7.5, 2 mM MgCl2, 50 mM NaCl (Trbp111) or 150 mM NaCl (Arc1p), room temperature; ITC: 25 mM Tris-HCl pH 7.4, 150 mM NaCl, 2 mM MgCl2, 25 C; conditions: protein: recombinant; tags: His-MBP removed; hairpin
Trbp111 [3] = biological target: T2, Trbp111; test: competition fluorescence polarization; ITC (Arc1p): 25 mM Tris-HCl pH 7.4, 150 mM NaCl, 2 mM MgCl2, 25 °C. FP and competition FP: 25 mM Tris-HCl pH 7.5, 150 mM NaCl (Arc1p) or 50 mM NaCl (Trbp111), 2 mM MgCl2, room temperature; conditions: protein: recombinant; tags: His-MBP removed (PreScission); chain copies: 2; hairpin
Arc1p dN [4] = biological target: T1, Arc1p dN; test: as above; conditions: protein: recombinant; tags: His-MBP removed; hairpin
Arc1p dN [5] = biological target: T1, Arc1p dN; test: competition FP; FP: 25 mM Tris-HCl pH 7.5, 2 mM MgCl2, 50 mM NaCl (Trbp111) or 150 mM NaCl (Arc1p), room temperature; ITC: 25 mM Tris-HCl pH 7.4, 150 mM NaCl, 2 mM MgCl2, 25 C; conditions: protein: recombinant; tags: His-MBP removed; hairpin; remark: listed apart in the source
Trbp111 [6] = biological target: T2, Trbp111; test: 2AP fluorescence lifetime; 60 uM protein: 4.73 to 5.76 ns; FP: 25 mM Tris-HCl pH 7.5, 2 mM MgCl2, 50 mM NaCl (Trbp111) or 150 mM NaCl (Arc1p), room temperature; ITC: 25 mM Tris-HCl pH 7.4, 150 mM NaCl, 2 mM MgCl2, 25 C; conditions: protein: recombinant; tags: His-MBP removed (PreScission); chain copies: 2; label: 2AP; hairpin
Arc1p dN [7] = biological target: T1, Arc1p dN; test: 2AP fluorescence lifetime; 20 uM protein: 4.76 to 6.2 ns; FP: 25 mM Tris-HCl pH 7.5, 2 mM MgCl2, 50 mM NaCl (Trbp111) or 150 mM NaCl (Arc1p), room temperature; ITC: 25 mM Tris-HCl pH 7.4, 150 mM NaCl, 2 mM MgCl2, 25 C; conditions: protein: recombinant; tags: His-MBP removed; label: 2AP; hairpin
Arc1p dN [8] = biological target: T1, Arc1p dN; test: 2AP fluorescence lifetime; 20 uM protein: 5.46 to 6.26 ns; FP: 25 mM Tris-HCl pH 7.5, 2 mM MgCl2, 50 mM NaCl (Trbp111) or 150 mM NaCl (Arc1p), room temperature; ITC: 25 mM Tris-HCl pH 7.4, 150 mM NaCl, 2 mM MgCl2, 25 C; conditions: protein: recombinant; tags: His-MBP removed; label: 2AP; hairpin
Trbp111 [9] = biological target: T2, Trbp111; test: competition FP; FP: 25 mM Tris-HCl pH 7.5, 2 mM MgCl2, 50 mM NaCl (Trbp111) or 150 mM NaCl (Arc1p), room temperature; ITC: 25 mM Tris-HCl pH 7.4, 150 mM NaCl, 2 mM MgCl2, 25 C; conditions: protein: recombinant; tags: His-MBP removed (PreScission); chain copies: 2; hairpin

| Binder | IC50 (Trbp111 [3]) | IC50 (Arc1p dN [4]) | binding signal (Arc1p dN [5]) | other results |
| --- | --- | --- | --- | --- |
| AGGCUUUUCAAGUAGGCCUACCA (structured_RNA) [MicroH] | 7.32 ± 0.991 µM | 4.66 ± 0.769 µM |  | IC50 (Trbp111 [1]): 7.2 ± 1 µM; binding signal (Arc1p dN [2]): ~10 fold weaker than tRNA |
| AGGCUUGGGUGGUUCAAGUCCACUCAGGCCUACCA (structured_RNA) [MiniH] | 5.96 ± 1.02 µM | 3.69 ± 0.931 µM |  | IC50 (Trbp111 [1]): 6.5 ± 1 µM; binding signal (Arc1p dN [2]): ~10 fold weaker than tRNA |
| AGGCUUGGGUGGUUCAAGUCCACUCAGGCCUACCU (structured_RNA) [MiniH-ACCU] |  | 11.8 ± 2.67 µM | ~3 fold weaker than MiniH |  |
| AGGCUUGGGUGGUUCAAGUCCACUCAGGCCUACAA (structured_RNA, 2-aminopurine at position 75) [MiniH-AC-2AP-A] |  |  |  | binding result (Trbp111 [6]): binds; binding result (Arc1p dN [7]): binds |
| AGGCUUGGGUGGUUCAAGUCCACUCAGGCCUACCC (structured_RNA) [MiniH-ACCC] |  | 13.2 ± 4.95 µM | ~3 fold weaker than MiniH |  |
| AGGCUUGGGUGGUUCAAGUCCACUCAGGCCUACCA (structured_RNA, 2-aminopurine at position 76) [MiniH-ACC-2AP] |  |  |  | binding result (Arc1p dN [8]): binds |
| AGGCUUGGGUGGUUCAAGUCCACUCAGGCCUACCG (structured_RNA) [MiniH-ACCG] |  | 7.58 ± 2.9 µM | ~2 fold weaker than MiniH |  |
| AGGCUUGGGUGGUUCAAGUCCACUCAGGCCUCA (structured_RNA) [MiniH dA73/dC74] | 2.17 ± 0.151 µM | 2.78 ± 0.339 µM |  | binding signal (Trbp111 [9]): ~3 fold higher affinity than MiniH |
